Results on twelve molecules are retold here after patent publication US20260008852A1 (CRYSTAL BIOSCIENCE, published 2026).

The chains are these.
T1: His-tagged human B7-H3 (human, UniProt Q5ZPR3-2 29-245, limits assumed)
T1 construct: Bought His-tagged protein coated on the ELISA plate; also called hu B7-H3; CD276
T1 sequence (looked up): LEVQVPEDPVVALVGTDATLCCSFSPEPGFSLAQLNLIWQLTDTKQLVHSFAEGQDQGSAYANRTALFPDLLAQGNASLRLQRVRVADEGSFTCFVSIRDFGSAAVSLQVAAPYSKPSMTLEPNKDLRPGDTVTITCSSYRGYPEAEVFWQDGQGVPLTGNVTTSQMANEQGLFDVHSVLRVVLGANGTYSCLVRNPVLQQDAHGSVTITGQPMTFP

T2: B7-H3 on B7-H3-expressing CHO cells (Genescript) (UniProt Q5ZPR3 29-534, limits assumed)
T2 construct: whole, on cells; also called CHO-K1/B7-H3; MFI B7-H3
T2 sequence (looked up): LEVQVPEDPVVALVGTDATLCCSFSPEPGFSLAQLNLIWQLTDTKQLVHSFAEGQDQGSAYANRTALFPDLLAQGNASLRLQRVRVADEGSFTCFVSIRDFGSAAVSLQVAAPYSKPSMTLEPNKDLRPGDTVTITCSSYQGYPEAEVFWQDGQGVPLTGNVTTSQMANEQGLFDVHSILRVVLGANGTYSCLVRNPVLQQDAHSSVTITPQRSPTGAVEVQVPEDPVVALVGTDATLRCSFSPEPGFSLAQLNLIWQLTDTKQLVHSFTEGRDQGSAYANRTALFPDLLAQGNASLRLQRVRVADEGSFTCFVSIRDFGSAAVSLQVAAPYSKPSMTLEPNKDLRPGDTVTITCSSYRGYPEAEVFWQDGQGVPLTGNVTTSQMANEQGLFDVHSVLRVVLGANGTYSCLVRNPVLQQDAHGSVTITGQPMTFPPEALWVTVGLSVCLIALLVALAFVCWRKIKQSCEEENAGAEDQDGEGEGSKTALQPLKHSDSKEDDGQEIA

T3: His-tagged cynomolgus monkey B7-H3 (cynomolgus monkey)
T3 chain: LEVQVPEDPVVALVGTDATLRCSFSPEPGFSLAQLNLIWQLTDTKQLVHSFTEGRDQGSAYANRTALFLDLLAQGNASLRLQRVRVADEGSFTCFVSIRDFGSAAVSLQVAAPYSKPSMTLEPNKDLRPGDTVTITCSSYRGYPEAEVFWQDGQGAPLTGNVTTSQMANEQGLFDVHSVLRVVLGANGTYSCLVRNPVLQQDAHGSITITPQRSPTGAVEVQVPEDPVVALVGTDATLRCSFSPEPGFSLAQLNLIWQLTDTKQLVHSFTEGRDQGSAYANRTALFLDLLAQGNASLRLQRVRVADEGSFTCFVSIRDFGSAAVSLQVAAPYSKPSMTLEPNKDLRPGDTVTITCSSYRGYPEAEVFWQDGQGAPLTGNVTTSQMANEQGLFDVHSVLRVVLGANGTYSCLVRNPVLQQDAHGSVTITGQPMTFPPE

T4: His-tagged mouse B7-H3 (mouse, UniProt Q8VE98 29-244, limits assumed)
T4 construct: Bought His-tagged protein coated on the ELISA plate; also called mu B7-H3; murine B7-H3
T4 sequence (looked up): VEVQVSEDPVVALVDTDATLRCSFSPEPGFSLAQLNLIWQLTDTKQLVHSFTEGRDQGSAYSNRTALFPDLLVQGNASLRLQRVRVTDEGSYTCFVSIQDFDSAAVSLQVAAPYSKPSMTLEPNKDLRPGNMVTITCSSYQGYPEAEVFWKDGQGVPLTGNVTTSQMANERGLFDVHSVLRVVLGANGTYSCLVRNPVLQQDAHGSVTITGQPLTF

B1: 40633p1.1.G7 (scFv, V domains shown)
VH: EVQLLESGGGLVQPGGSLRLSCAASGFTFSGSAMNWVRQAPGKGLEWVSAINSGGTTIYYADSVKGRFTVSRDNSKNTLYLQMNSLRAEDTAVYYCVKLDFYYGMDVWGEGTTVTVSS
VL: QSVVTQPPSASGTPGQRVTVSCSGSSSNVGSKYVQWYQQLPGTAPKLLIYATDRRPSGVPDRFSGSKSGTSASLAISGLQSEDEADYYCASWDDSLNAWVFGGGTKLTVL
notes: Tested as scFv-Fc (Expi293 supernatant)
B2: 40633p1.1.H11 (scFv, V domains shown)
VH: EVQLLESGGGLVQPGGSLRLSCAASGFTFSSYPMTWVRQAPGKGLEWVADINSGGGTTLYADAVKGRFTISRDNSKNIVYLQMNSLRGEDTAVYYCAKHLDYYSYGMDVWGQGTTVTVSS
VL: QSVLTQPPSASGTPGQRVTISCSGVTSKIGSKYVHWYQQLPGTAPKLLIYRNFERPSGVPDRFSGSTSGTSASLAISGLQSEDEADYYCATWEGALNGWVFGGGTKLTVL
notes: as for B1
B3: 40633p1.1.G5 (scFv, V domains shown)
VH: EVQLLESGGGLVQPGGSLRLSCAASGFIVNYYGMSWVRQPPGKGLEWVSAIKQDGSEKYYADSVKGRFTISRDNSKTTLYLQMNSLRAEDTAVYYCARHWNDYSNGMNVWGQGTTVTVSS
VL: QSVLTQPPSASGTPGQRVTISCSGSWSNIGSYNSHWYQKLPGTAPKLLIYTTDRRPSGVPDRFSGSKSGTSASLAISGLQSEDEADYYCGTWDDSLNVWVFGGGTKLTVL
notes: as for B1
B4: 40511p1.1.D8 (scFv, V domains shown)
VH: DVQLVESGGGVVRPGESLRLSCAASGFTFSSYAMSWVRQAPGEGLEWVSSISGSGGSTLYADSVKGRFTISRDSSNNSLYLQMNSLRAEDTAVYYCAKARNNFFDYWGLGTLVTVSS
VL: EIVLTQSPGTLTLSPGERATLSCRASRSILTSLAWYQQRPGQAPRLLIYGANSRATGIPDRFSGSGSGTEFTLTISSLQSEDFAVYYCQQYYDWLTITFGGGTKVEIK
notes: as for B1
B5: 40511p1.2.B5 (scFv, V domains shown)
VH: B4 VH
VL: B4 VL with A43T
notes: as for B1
B6: 40511p1.1.D6 (scFv, V domains shown)
VH: DVQLVESGGGVVRPGESLTLSCAASGFTINSYAVSWVRQAPGEGLEWVSGISGSGVRYYADSVKGRFTISRDNSNNTLYLQMNSLRAEDTAVYYCARSNKVTWNNFFDYWGLGTLVTVSS
VL: EVVLTQSPGTLTLSPGERATLSCRASRSILTSLAWYQQKPGQAPRLLIYNTVTRATGIPARFSGSGSGTEFTLTINSLQSEDFAVYYCQQYYDWPPLTFGGGTKVEIK
notes: as for B1
B7: 40511p1.1.G3 (scFv, V domains shown)
VH: B6 VH with N73D
VL: B6 VL
notes: as for B1
B8: 40511p1.2.A12 (scFv, V domains shown)
VH: DVQLVESGGGVVRPGESLRLSCAASGFTFSSYAESWVRQAPGEGLEWVSIISGSGGNTFYADSVKGRFTISRDNSKNTLYLQMNSLRAEDTAVYYCARFAYGFFDYWGLGTLVTVSS
VL: EIVLTQSPGTLSVSPGERATLSCRASQTVGSKLAWYQQKPGQPPSLLIYDASTRATGIPDRFSGSGSGTDFTLTISSLQSEDFAVYYCQQYRNWPPLTFGGGTKVEIK
notes: Tested as scFv-Fc (Expi293 supernatant); also called 40511p1.2.Al2
B9: 40511p1.1.G1 (scFv, V domains shown)
VH: B8 VH
VL: B8 VL with R18G
notes: as for B1
B10: 40633p1.2.D1 (scFv, V domains shown)
VH: EVQLLESGGGLVQPGGSLRLSCAASGFTFDVYGMSWVRQAPGKGLEWVSAINWNGGSTYYADSVKGRFTISRDNSENTLYLQMNSLRAEDTAVYYCAKEKWKHFIYYGMDVWGQGTTVTVSS
VL: QSVLTQPASASGTPGQTVSISCSGSSSNIDSNTANWYQQLPGTAPKLLIYSNNQRPSGVPDRFSGSKSDTSASLAISGLQSEDEGDYYCSAWDDNLNGWLFGGGTKLTVL
notes: as for B1
B11: 40633p1.2.E5 (scFv, V domains shown)
VH: B10 VH with V31G, N52S, W53G, G55S, T58I, E76K, V93A
VL: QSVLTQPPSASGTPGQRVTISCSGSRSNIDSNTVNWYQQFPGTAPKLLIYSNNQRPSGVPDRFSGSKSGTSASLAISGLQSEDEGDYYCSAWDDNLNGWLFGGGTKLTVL
notes: as for B1
B12: 40633p1.2.D11 (scFv, V domains shown)
VH: EVQLESGGGLVQPGGSLRLSCAASGFTVSYYGMSWVRQAPGKGLEWVSAIKQDGSEKYYADSVKGRFTISRDNSKNTLYLQMNSLRAEDTAVYYCARHWNDYSNAMNVWGQGTTVTVSS
VL: QSVLTQPPSASGTPGQRVTISCSGSTSNIAIDFVNWYQQLPGTAPKLLIYTIDQRPSGVPDRFSGSKSGTSASLAISGLQSEDEAVYYCASWDASLNGWVFGRGTKLTVL
notes: as for B1

Changes are numbered by the printed parent chain.

The target in one assay is T1, His-tagged human B7-H3. Description: ELISA OD450 on hu B7-H3 over OD450 on mu B7-H3. A general note: ELISA stands for enzyme-linked immunosorbent assay.
As for B1, the “hu:mu ratio” value turned out to be 1.15.
Still for that read-out and setting: the result for B2 reads 1.1; that for B3, 3.09.
Regarding B4, the “hu:mu ratio” value worked out at 2.39.
As for B5, the “hu:mu ratio” value was determined as 2.78.
Turning to B6, the “hu:mu ratio” value stood at 1.19.
B7: the “hu:mu ratio” value is 1.24.
Same read-out and setting: the result for B8 reads 1.25.
On the same count and under the same terms, the result for B9 reads 1.32.
As for B10, the “hu:mu ratio” value stood at 1.08.
On the same count and under the same terms, under B11 stands 1.12; under B12, 1.49.

For a further assay, the target named is T2, B7-H3 on B7-H3-expressing CHO cells …. Briefly: flow cytometry, B7-H3-expressing CHO cells, 10 ug/ml. In outline:
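Antibodies at 10 μg/ml in PBS/1% BSA/0.01% NaN3 incubated 60 min on ice with ~1.5e5 cells; parental CHO cells as counterscreen. After washing, read by flow cytometry; values are mean fluorescent intensities (MFI).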
(In general: A flow cytometer gives signals particle by particle.)
Consider B1, for which the “MFI @ 10 ug/ml” value came out at 78300 MFI.
Still for that read-out and setting: under B2 stands 81300 MFI; under B3, 41000 MFI; under B4, 79200 MFI.
On to B5, for which the “MFI @ 10 ug/ml” value came to 67900 MFI.
On the same count and under the same terms, under B6 stands 84200 MFI.
Turning to B7, the “MFI @ 10 ug/ml” value came out at 89100 MFI.
Still for that read-out and setting: the result for B8 reads 77200 MFI; that for B9, 74500 MFI.
Same read-out and setting: the result for B10 reads 14100 MFI; that for B11, 86600 MFI; that for B12, 63200 MFI.

The next assay has as its target T3, His-tagged cynomolgus monkey B7-H3. Briefly: ELISA, coated His-tagged antigen, scFv-Fc 1 ug/ml.
With B1, the “ELISA OD450 @ 1 ug/ml” value came out at 1.95 OD450.
Same read-out and setting: the result for B2 reads 1.92 OD450; that for B3, 1.49 OD450.
Still for that read-out and setting: under B4 stands 2.02 OD450; under B5, 2.12 OD450.
B6: the “ELISA OD450 @ 1 ug/ml” value amounted to 2.11 OD450.
Still for that read-out and setting: under B7 stands 1.97 OD450; under B8, 2.34 OD450.
On the same count and under the same terms, under B9 stands 2.28 OD450; under B10, 1.94 OD450.
On the same count and under the same terms, the result for B11 reads 2.08 OD450; that for B12, 1.95 OD450.

In a further assay the target is T1, His-tagged human B7-H3. Description: ELISA, coated His-tagged antigen, scFv-Fc 1 ug/ml.
On to B1, for which the “ELISA OD450 @ 1 ug/ml” value turned out to be 2.16 OD450.
Still for that read-out and setting: the result for B2 reads 2.07 OD450; that for B3, 0.794 OD450; that for B4, 2.13 OD450.
Still for that read-out and setting: the result for B5 reads 2.14 OD450.
With B6, the “ELISA OD450 @ 1 ug/ml” value came out at 1.92 OD450.
On the same count and under the same terms, under B7 stands 2.13 OD450; under B8, 2.13 OD450; under B9, 2.2 OD450.
On the same count and under the same terms, the result for B10 reads 1.49 OD450; that for B11, 2.15 OD450; that for B12, 1.53 OD450.

For another assay, the target named is T4, His-tagged mouse B7-H3. Description: ELISA, coated His-tagged antigen, scFv-Fc 1 ug/ml.
As to B1, the “ELISA OD450 @ 1 ug/ml” value amounted to 1.87 OD450.
Regarding B2, the “ELISA OD450 @ 1 ug/ml” value was 1.88 OD450.
On the same count and under the same terms, under B3 stands 0.257 OD450; under B4, 0.891 OD450; under B5, 0.771 OD450.
On the same count and under the same terms, under B6 stands 1.61 OD450.
Still for that read-out and setting: the result for B7 reads 1.71 OD450; that for B8, 1.7 OD450; that for B9, 1.67 OD450.
As for B10, the “ELISA OD450 @ 1 ug/ml” value is 1.38 OD450.
Same read-out and setting: under B11 stands 1.92 OD450; under B12, 1.03 OD450.
